Test results published in US20060088535.

Tested on: ApCREB-1 (Aplysia californica)
Experiment: cell_activity
Conditions: F9 cells with PKA; 2.13 without PKA; 1.64 with ApCREB-2 plus PKA

TGACGTCA (double strand) [single CRE palindrome in pGL3-CRE reporter]
activity (fold activation): 10.5
